B1: human TLR1 TIR domain (TLR1-TIR), residues 625-786, untagged (domain or fragment, UniProt Q15399 625-786, looked up)
chain: NIPLEELQRNLQFHAFISYSGHDSFWVKNELLPNLEKEGMQICLHERNFVPGKSIVENIITCIEKSYKSIFVLSPNFVQSEWCHYELYFAHHNLFHEGSNSLILILLEPIPQYSIPSSYHKLKSLMARRTYLEWPKEKSKRGLFWANLRAAINIKLTEQAKK
notes: human TLR1, NCBI NP_003254.2, the entire intracellular TIR region of residues 625-786; Elutes as distinct dimer and monomer peaks on Superose-12; also called untagged TLR1-TIR
B2: human TLR2 TIR domain (TLR2-TIR), residues 633-784, untagged (domain or fragment, UniProt O60603 633-784, looked up)
chain: KAPSRNICYDAFVSYSERDAYWVENLMVQELENFNPPFKLCLHKRDFIPGKWIIDNIIDSIEKSHKTVFVLSENFVKSEWCKYELDFSHFRLFDENNDAAILILLEPIEKKAIPQRFCKLRKIMNTKTYLEWPMDEAQREGFWVNLRAAIKS
notes: human TLR2, NCBI NP_001305716.1, the entire intracellular TIR region of residues 633-784; 15N-labelled in the NMR experiments; Elutes as distinct dimer and monomer peaks on Superose-12; also called 15N-TLR2-TIR
B3: Staphylococcus aureus TIR protein (tirS), full length (natural protein)
chain: MSVLETKLKSQMSKSAKIARNMNKLPDEIDRLRKRIERINKKRKPTSSNIRDLEKSNKQLVTKQQKLADLQVEYTKIEKKINETKINLQKEQSRNQKKLSSMLDKNTKGNEEIMEKLLTNSDQINEISNQIKKAVNQKEIIEYDVFLSHSSLDKEDYVSKISEKLIEKGLKVFEDVKVFEIGKSQTETMNMGILNSRFVVVFLSPNFIESGWSRYEFLSFLNREINEEHVIILPIWHKVSVEDVRAYNPYLVDKYALNTSDFSIEEIVEKIYQVIVNSKN
notes: Staphylococcus aureus TIR protein (tirS), NCBI WP_000114516.1, full length (CC domain and TIR domain); also called full-length tirS

How the values were obtained:
[1] = biological target: Acinetobacter junii TIR protein (tirA), full length (Acinetobacter junii); test: SEC; analytical sizing of the full-length bacterial TIR-containing proteins, their CC domains and TIR constructs; sample loads 200 μM, except tirS-TIR E216A 20 μM and tirA-TIR E206A 50 μM
[2] = biological target: Enterococcus TIR protein (tirE), full length (Enterococcus); test: as above
[3] = biological target: tirA coil-coil (CC) domain (Acinetobacter junii); test: as above
[4] = biological target: tirE coil-coil (CC) domain (Enterococcus); test: as above
[5] = biological target: tirS coil-coil (CC) domain (Staphylococcus aureus); test: as above
[6] = biological target: the molecule itself; test: SEC; analytical Superose-12; 50 mM Na2HPO4, pH 6.5, 150 mM NaCl, 1 mM DTT; TLR1-TIR and TLR2-TIR also after 30 min in 50 mM DTT (homodimers minimized)
[7] = biological target: B1; test: NMR titration; 15N-TLR2-TIR at 308 μM, unlabeled partner added (TLR1-TIR 308, 616, 924 μM; full-length tirA 308 μM); 15N-HSQC; global fit of several resonances; settings: both partners purified
[8] = biological target: human TLR2 TIR domain (TLR2-TIR), residues 633-784, untagged (human) (UniProt O60603); test: SEC; analytical Superose-12; 50 mM Na2HPO4, pH 6.5, 150 mM NaCl, 1 mM DTT; TLR1-TIR and TLR2-TIR also after 30 min in 50 mM DTT (homodimers minimized)
[9] = biological target: the molecule itself; test: SEC; analytical sizing of the full-length bacterial TIR-containing proteins, their CC domains and TIR constructs; sample loads 200 μM, except tirS-TIR E216A 20 μM and tirA-TIR E206A 50 μM

Molecule: Acinetobacter junii TIR protein (tirA), full length (natural protein)
- stoichiometry N [1]: 2

Molecule: Enterococcus TIR protein (tirE), full length (natural protein)
- stoichiometry N [2]: 2

Molecule: tirA coil-coil (CC) domain (domain or fragment)
- stoichiometry N [3]: 2

Molecule: tirE coil-coil (CC) domain (domain or fragment)
- stoichiometry N [4]: 2

Molecule: tirS coil-coil (CC) domain (domain or fragment)
- stoichiometry N [5]: 2

Molecule: B1
- stoichiometry N [6]: 2

Molecule: B2
- Kd [7]: 760 ± 230 µM
- stoichiometry N [8]: 2

Molecule: B3
- stoichiometry N [9]: 2

— article PMC9318647, “Human and Bacterial Toll-Interleukin Receptor Domains Exhibit Distinct Dynamic Features and Functions” (Molecules, 2022)
